These results are taken from paper PMC11894141 (EMBO Reports, 2025).

The target in this test is T1, recombinant GST-tagged HSC70 (wild type) (human, UniProt P11142-1 1-646).
T1 construct: HSC70, human HSPA8 cDNA in pGEX-6P-1; also called GST-HSC70; GST-HSC70 WT; source: BL21-Rosetta E. coli, purified (Glutathione Sepharose 4 Fast Flow, eluted with reduced glutathione)
Briefly: pull-down; Strep-tagged CSN held on Streptactin Sepharose, HSC70 at a 1:5 ratio, room temperature; with or without 5 µM NR peptide; Coomassie or immunoblot. To be noted: both partners purified.

T1 sequence (P11142 whole entry): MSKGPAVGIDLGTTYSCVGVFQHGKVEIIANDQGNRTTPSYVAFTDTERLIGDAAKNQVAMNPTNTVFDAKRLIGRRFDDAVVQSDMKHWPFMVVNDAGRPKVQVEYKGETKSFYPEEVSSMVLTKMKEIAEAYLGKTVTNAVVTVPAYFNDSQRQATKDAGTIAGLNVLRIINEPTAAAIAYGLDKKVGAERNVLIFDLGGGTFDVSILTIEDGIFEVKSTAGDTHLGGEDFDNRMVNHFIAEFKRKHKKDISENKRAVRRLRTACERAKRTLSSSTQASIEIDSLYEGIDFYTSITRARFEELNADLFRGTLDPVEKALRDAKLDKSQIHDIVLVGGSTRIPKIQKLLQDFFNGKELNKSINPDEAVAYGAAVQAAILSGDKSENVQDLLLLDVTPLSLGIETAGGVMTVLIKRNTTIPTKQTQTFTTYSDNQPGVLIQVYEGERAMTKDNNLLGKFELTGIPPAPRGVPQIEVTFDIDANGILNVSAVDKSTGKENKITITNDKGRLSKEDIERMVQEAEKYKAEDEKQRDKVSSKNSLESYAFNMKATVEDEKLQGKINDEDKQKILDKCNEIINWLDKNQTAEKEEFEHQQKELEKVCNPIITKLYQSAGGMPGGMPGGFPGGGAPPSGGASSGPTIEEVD

B1: NR peptide (an HSC70 model substrate) (peptide)
peptide: NRLLLTGC
notes: NR peptide, HSC70 model substrate (Xu et al, 2012)
Regarding B1, the binding result is recorded as “binds”.
